According to paper PMC3419727, “Identifying the Hotspots on the Top Faces of WD40-Repeat Proteins from Their Primary Sequences by β-Bulges and DHSW Tetrads” (PLoS ONE, 2012):
Where “and” joins values, the source holds several entries; their conditions need not be identical. Equal entries are not always repeated.

Legend:
Test in all cases: ITC; Fep1 (~1.4 mM) injected, 2 µl each time, into Tup11 WT or mutant (~0.2 mM); 25°C; 1×PBS pH 7.4, 150 mM NaCl; iTC200 (MicroCal); Fep1 into buffer subtracted as background
[1] = biological target: Leu524Ala at D-1 and Phe557Ala at R1-2
[2] = biological target: The remained five residues (Ala substitutions at R1 positions of Tup11)
[3] = biological target: T1, S. japonicus Tup11 WD40 domain (301–630) Ile601Ala (S. japonicus, UniProt B6JV84 301-630, Ile601Ala); conditions: both partners purified
T1 construct: Tup11, S. japonicus, WD40 domain, amino acids 301-630
T1 sequence (looked up): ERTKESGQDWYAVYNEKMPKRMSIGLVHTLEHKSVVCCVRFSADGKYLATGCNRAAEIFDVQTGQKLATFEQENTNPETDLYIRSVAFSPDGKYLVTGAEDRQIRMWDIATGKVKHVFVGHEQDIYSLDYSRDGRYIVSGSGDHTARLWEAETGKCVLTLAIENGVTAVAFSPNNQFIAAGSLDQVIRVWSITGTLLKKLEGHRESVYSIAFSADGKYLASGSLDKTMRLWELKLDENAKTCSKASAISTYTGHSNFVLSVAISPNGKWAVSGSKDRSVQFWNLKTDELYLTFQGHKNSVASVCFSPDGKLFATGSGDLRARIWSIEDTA

[4] = biological target: T2, S. japonicus Tup11 WD40 domain (301–630) Tyr382Ala (S. japonicus, UniProt B6JV84 301-630, Tyr382Ala); conditions: both partners purified
T2 construct: Tup11, S. japonicus, WD40 domain, amino acids 301-630
T2 sequence (looked up): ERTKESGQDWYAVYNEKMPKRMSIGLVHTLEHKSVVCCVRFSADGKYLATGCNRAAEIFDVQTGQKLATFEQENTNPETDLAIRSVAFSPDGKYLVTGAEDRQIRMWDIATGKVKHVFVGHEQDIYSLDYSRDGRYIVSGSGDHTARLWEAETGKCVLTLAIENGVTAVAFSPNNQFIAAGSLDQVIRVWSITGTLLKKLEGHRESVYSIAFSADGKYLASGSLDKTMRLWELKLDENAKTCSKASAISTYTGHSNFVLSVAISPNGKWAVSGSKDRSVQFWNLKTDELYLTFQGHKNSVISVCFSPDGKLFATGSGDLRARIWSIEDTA

[5] = biological target: T3, S. japonicus Tup11 WD40 domain (301–630) Leu559Ala (S. japonicus, UniProt B6JV84 301-630, Leu559Ala); conditions: both partners purified
T3 construct: Tup11, S. japonicus, WD40 domain, amino acids 301-630
T3 sequence (looked up): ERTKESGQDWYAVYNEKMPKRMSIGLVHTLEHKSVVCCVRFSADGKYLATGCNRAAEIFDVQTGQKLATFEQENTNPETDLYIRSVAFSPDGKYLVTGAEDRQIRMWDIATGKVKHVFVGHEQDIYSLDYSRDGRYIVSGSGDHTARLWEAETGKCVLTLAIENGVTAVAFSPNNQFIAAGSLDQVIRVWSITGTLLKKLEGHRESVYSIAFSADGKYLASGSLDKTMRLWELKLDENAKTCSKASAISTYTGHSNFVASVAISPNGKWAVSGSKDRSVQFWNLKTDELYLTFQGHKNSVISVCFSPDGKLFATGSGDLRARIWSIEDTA

[6] = biological target: T4, S. japonicus Tup11 WD40 domain (301–630) Phe557Ala (S. japonicus, UniProt B6JV84 301-630, Phe557Ala); conditions: both partners purified
T4 construct: Tup11, S. japonicus, WD40 domain, amino acids 301-630
T4 sequence (looked up): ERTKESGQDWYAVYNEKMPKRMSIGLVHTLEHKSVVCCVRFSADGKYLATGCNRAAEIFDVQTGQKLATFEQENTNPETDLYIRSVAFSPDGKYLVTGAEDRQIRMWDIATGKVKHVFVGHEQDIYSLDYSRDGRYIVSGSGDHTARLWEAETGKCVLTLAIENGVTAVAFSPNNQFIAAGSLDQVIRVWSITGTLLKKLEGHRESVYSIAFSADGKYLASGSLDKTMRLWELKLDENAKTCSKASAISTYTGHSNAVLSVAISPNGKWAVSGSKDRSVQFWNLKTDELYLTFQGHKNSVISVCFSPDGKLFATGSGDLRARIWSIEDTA

[7] = biological target: T5, S. japonicus Tup11 WD40 domain (301–630) Leu524Ala (S. japonicus, UniProt B6JV84 301-630, Leu524Ala); conditions: both partners purified
T5 construct: Tup11, S. japonicus, WD40 domain, amino acids 301-630
T5 sequence (looked up): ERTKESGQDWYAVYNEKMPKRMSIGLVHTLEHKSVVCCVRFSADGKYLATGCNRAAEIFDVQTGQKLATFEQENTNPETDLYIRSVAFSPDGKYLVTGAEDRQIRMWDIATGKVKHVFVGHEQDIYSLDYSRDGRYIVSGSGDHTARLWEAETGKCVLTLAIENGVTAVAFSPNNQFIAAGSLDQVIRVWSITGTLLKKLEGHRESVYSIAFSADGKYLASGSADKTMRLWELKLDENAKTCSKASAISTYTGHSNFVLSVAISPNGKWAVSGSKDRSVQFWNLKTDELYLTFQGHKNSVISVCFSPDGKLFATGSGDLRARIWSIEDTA

B1: C-terminal region of S. pombe Fep1 (amino acids 319–564) (domain or fragment, UniProt Q10134 319-564, looked up)
chain: AAGEPDNNGKVYYSYGPTQEQSILPLPENKHEGLPPYQNEYVPNGIRANQVVYPGQLVAVGNDSSKQLSESTTSNTDNNGVATANQSNPLGMKFHLPPILPVGESVCLPPRTSAKPRIAEGIASLLNPEEPPSNSDKQPSMSNGPKSEVSPSQSQQAPLIQSSTSPVSLQFPPEVQGSNVDKRNYALNVLSQLRSQHDLMIQELHNLNQHIQQIDEWLRSSDNENMASEHIKSSTPAVVASGALQT
notes: Fep1, GATA-factor, S. pombe, C-terminal region, amino acids 319-564
[1]
  reduction of binding free energy against wild type: 0.5 kcal/mol and 0.8 kcal/mol
[2]
  reduction of binding free energy against wild type: 1 kcal/mol and 1.5 kcal/mol
[3]
  binding result: binds
[4]
  reduction of binding free energy against wild type: ~1.7 kcal/mol
[5]
  reduction of binding free energy against wild type: ~1 kcal/mol
[6]
  binding result: binds
[7]
  binding result: binds
